Data taken from IntAct's records for PubMed 26455797.

B1: CCAAT/enhancer-binding protein alpha (Homo sapiens), P49715-1 (parent)
chain: MESADFYEAEPRPPMSSHLQSPPHAPSSAAFGFPRGAGPAQPPAPPAAPEPLGGICEHETSIDISAYIDPAAFNDEFLADLFQHSRQQEKAKAAVGPTGGGGGGDFDYPGAPAGPGGAVMPGGAHGPPPGYGCAAAGYLDGRLEPLYERVGAPALRPLVIKQEPREEDEAKQLALAGLFPYQPPPPPPPSHPHPHPPPAHLAAPHLQFQIAHCGQTTMHLQPGHPTPPPTPVPSPHPAPALGAAGLPGPGSALKGLGAAHPDLRASGGSGAGKAKKSVDKNSNEYRVRRERNNIAVRKSRDKAKQRNVETQQKVLELTSDNDRLRKRVEQLSRELDTLRGIFRQLPESSLVKAMGNCA
partner: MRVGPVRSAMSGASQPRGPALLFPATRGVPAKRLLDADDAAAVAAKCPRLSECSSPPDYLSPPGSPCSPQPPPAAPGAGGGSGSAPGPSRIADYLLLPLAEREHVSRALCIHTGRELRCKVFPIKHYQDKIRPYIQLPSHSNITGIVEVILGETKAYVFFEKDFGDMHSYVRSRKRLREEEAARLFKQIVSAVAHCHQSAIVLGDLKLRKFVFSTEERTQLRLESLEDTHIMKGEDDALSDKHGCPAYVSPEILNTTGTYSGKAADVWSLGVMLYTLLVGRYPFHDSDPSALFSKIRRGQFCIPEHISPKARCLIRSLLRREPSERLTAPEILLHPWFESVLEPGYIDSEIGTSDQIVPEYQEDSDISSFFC

Variants of: B1
Conditions: with TRIB1, Q96RU8-1

| Variant | effect of a mutation on the interaction |
| --- | --- |
| MESADFYEAEPRPPMSSHLQSPPHAPSSAAFGFPRGAGPAQPPAPPAAPEPLGGICEHETSIDDSAYIDPAAFNDEFLADLFQHSRQQEKAKAAVGPTGGGGGGDFDYPGAPAGPGGAVMPGGAHGPPPGYGCAAAGYLDGRLEPLYERVGAPALRPLVIKQEPREEDEAKQLALAGLFPYQPPPPPPPSHPHPHPPPAHLAAPHLQFQIAHCGQTTMHLQPGHPTPPPTPVPSPHPAPALGAAGLPGPGSALKGLGAAHPDLRASGGSGAGKAKKSVDKNSNEYRVRRERNNIAVRKSRDKAKQRNVETQQKVLELTSDNDRLRKRVEQLSRELDTLRGIFRQLPESSLVKAMGNCA [I64D] | decreasing interaction strength |
| MESADFYEAEPRPPMSSHLQSPPHAPSSAAFGFPRGAGPAQPPAPPAAPEPLGGICEHETSIDISAAIDPAAFNDEFLADLFQHSRQQEKAKAAVGPTGGGGGGDFDYPGAPAGPGGAVMPGGAHGPPPGYGCAAAGYLDGRLEPLYERVGAPALRPLVIKQEPREEDEAKQLALAGLFPYQPPPPPPPSHPHPHPPPAHLAAPHLQFQIAHCGQTTMHLQPGHPTPPPTPVPSPHPAPALGAAGLPGPGSALKGLGAAHPDLRASGGSGAGKAKKSVDKNSNEYRVRRERNNIAVRKSRDKAKQRNVETQQKVLELTSDNDRLRKRVEQLSRELDTLRGIFRQLPESSLVKAMGNCA [Y67A] | decreasing interaction strength |
| MESADFYEAEPRPPMSSHLQSPPHAPSSAAFGFPRGAGPAQPPAPPAAPEPLGGACEHETSIDISAYIDPAAFNDEFLADLFQHSRQQEKAKAAVGPTGGGGGGDFDYPGAPAGPGGAVMPGGAHGPPPGYGCAAAGYLDGRLEPLYERVGAPALRPLVIKQEPREEDEAKQLALAGLFPYQPPPPPPPSHPHPHPPPAHLAAPHLQFQIAHCGQTTMHLQPGHPTPPPTPVPSPHPAPALGAAGLPGPGSALKGLGAAHPDLRASGGSGAGKAKKSVDKNSNEYRVRRERNNIAVRKSRDKAKQRNVETQQKVLELTSDNDRLRKRVEQLSRELDTLRGIFRQLPESSLVKAMGNCA [I55A] | decreasing interaction strength |
| MESADFYEAEPRPPMSSHLQSPPHAPSSAAFGFPRGAGPAQPPAPPAAPEPLGGICEHETSIDISAYDDPAAFNDEFLADLFQHSRQQEKAKAAVGPTGGGGGGDFDYPGAPAGPGGAVMPGGAHGPPPGYGCAAAGYLDGRLEPLYERVGAPALRPLVIKQEPREEDEAKQLALAGLFPYQPPPPPPPSHPHPHPPPAHLAAPHLQFQIAHCGQTTMHLQPGHPTPPPTPVPSPHPAPALGAAGLPGPGSALKGLGAAHPDLRASGGSGAGKAKKSVDKNSNEYRVRRERNNIAVRKSRDKAKQRNVETQQKVLELTSDNDRLRKRVEQLSRELDTLRGIFRQLPESSLVKAMGNCA [I68D] | decreasing interaction strength |
| MESADFYEAEPRPPMSSHLQSPPHAPSSAAFGFPRGAGPAQPPAPPAAPEPLGGICEHATSIDISAYIDPAAFNDEFLADLFQHSRQQEKAKAAVGPTGGGGGGDFDYPGAPAGPGGAVMPGGAHGPPPGYGCAAAGYLDGRLEPLYERVGAPALRPLVIKQEPREEDEAKQLALAGLFPYQPPPPPPPSHPHPHPPPAHLAAPHLQFQIAHCGQTTMHLQPGHPTPPPTPVPSPHPAPALGAAGLPGPGSALKGLGAAHPDLRASGGSGAGKAKKSVDKNSNEYRVRRERNNIAVRKSRDKAKQRNVETQQKVLELTSDNDRLRKRVEQLSRELDTLRGIFRQLPESSLVKAMGNCA [E59A] | decreasing interaction strength |
| MESADFYEAEPRPPMSSHLQSPPHAPSSAAFGFPRGAGPAQPPAPPAAPEPLGGICEHETAIDISAYIDPAAFNDEFLADLFQHSRQQEKAKAAVGPTGGGGGGDFDYPGAPAGPGGAVMPGGAHGPPPGYGCAAAGYLDGRLEPLYERVGAPALRPLVIKQEPREEDEAKQLALAGLFPYQPPPPPPPSHPHPHPPPAHLAAPHLQFQIAHCGQTTMHLQPGHPTPPPTPVPSPHPAPALGAAGLPGPGSALKGLGAAHPDLRASGGSGAGKAKKSVDKNSNEYRVRRERNNIAVRKSRDKAKQRNVETQQKVLELTSDNDRLRKRVEQLSRELDTLRGIFRQLPESSLVKAMGNCA [S61A] | decreasing interaction strength |
| MESADFYEAEPRPPMSSHLQSPPHAPSSAAFGFPRGAGPAQPPAPPAAPEPLGGICEHETSDDISAYIDPAAFNDEFLADLFQHSRQQEKAKAAVGPTGGGGGGDFDYPGAPAGPGGAVMPGGAHGPPPGYGCAAAGYLDGRLEPLYERVGAPALRPLVIKQEPREEDEAKQLALAGLFPYQPPPPPPPSHPHPHPPPAHLAAPHLQFQIAHCGQTTMHLQPGHPTPPPTPVPSPHPAPALGAAGLPGPGSALKGLGAAHPDLRASGGSGAGKAKKSVDKNSNEYRVRRERNNIAVRKSRDKAKQRNVETQQKVLELTSDNDRLRKRVEQLSRELDTLRGIFRQLPESSLVKAMGNCA [I62D] | decreasing interaction strength |
